Measured values published in article PMC3928677 (Science (New York, N.Y.), 2013).
Values joined by “and” are separate entries in the source; they are usually repeats but may differ in a detail not shown here. Identical values can stand only once. Like-named read-outs stand apart in the source and are kept apart here.

T1: RseB (Escherichia coli, UniProt P0AFX9)
T1 sequence (P0AFX9 24-318): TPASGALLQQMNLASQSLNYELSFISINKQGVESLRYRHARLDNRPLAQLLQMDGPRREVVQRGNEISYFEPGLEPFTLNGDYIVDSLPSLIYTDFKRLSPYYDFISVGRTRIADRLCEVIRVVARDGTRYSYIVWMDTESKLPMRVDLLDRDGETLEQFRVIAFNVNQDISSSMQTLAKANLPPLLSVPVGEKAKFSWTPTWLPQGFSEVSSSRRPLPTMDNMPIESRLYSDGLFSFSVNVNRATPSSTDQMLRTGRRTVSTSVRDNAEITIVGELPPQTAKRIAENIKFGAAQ

B1: MucB (natural protein, Pseudomonas aeruginosa, UniProt P38108 22-316, looked up)
chain: ADASDWLNRLAEADRQNSFQGTFVYERNGSFSTHEIWHRVESDGAVRERLLQLDGARQEVVRVDGRTQCISGGLADQLADAQLWPVRKFDPSQLASWYDLRLVGESRVAGRPAVVLAVTPRDQHRYGFELHLDRDTGLPLKSLLLNEKGQLLERFQFTQLNTGAAPAEDQLQAGAECQVVGPAKADGEKTVAWRSEWLPPGFTLTRSFMRRSPVTPDPVACLTYGDGLARFSVFIEPLHGAMVGDARSQLGPTVVVSKRLQTDDGGQMVTVVGEVPLGTAERVALSIRPEAAAQK
modifications: 35S label (in the elution assay from MucA^P-agarose only)
B2: RseB (natural protein, E. coli, UniProt P0AFX9 24-318, looked up)
chain: TPASGALLQQMNLASQSLNYELSFISINKQGVESLRYRHARLDNRPLAQLLQMDGPRREVVQRGNEISYFEPGLEPFTLNGDYIVDSLPSLIYTDFKRLSPYYDFISVGRTRIADRLCEVIRVVARDGTRYSYIVWMDTESKLPMRVDLLDRDGETLEQFRVIAFNVNQDISSSMQTLAKANLPPLLSVPVGEKAKFSWTPTWLPQGFSEVSSSRRPLPTMDNMPIESRLYSDGLFSFSVNVNRATPSSTDQMLRTGRRTVSTSVRDNAEITIVGELPPQTAKRIAENIKFGAAQ
modifications: 35S label (in the elution assay from RseA^P-agarose only)

How the values were obtained:
[1] = target: T1, RseB; test: fluorescence anisotropy, displacement of fluorescent RseA^P; type: binding
[2] = target: the molecule itself; test: SEC
[3] = target: the molecule itself; test: SEC; remark: listed apart in the source

| Molecule | EC50 [1] [µM] | stoichiometry N [2] | stoichiometry N [3] |
| --- | --- | --- | --- |
| CCCCCCCCCCC[C@@H](O)CC(=O)N[C@H]1[C@H](OC[C@H]2O[C@H](OP(=O)(O)O)[C@H](NC(=O)C[C@H](O)CCCCCCCCCCC)[C@@H](O)[C@@H]2O)O[C@H](CO)[C@@H](OP(=O)(O)O)[C@@H]1O [L-IIA] | ~65 |  |  |
| B1 |  | 4 and 2 |  |
| B2 |  | 4 | 2 |
